In EP4289863A9 (Shanghai Huaota Biopharmaceutical Co., Ltd., dated 2024):
Values belong to the binder of their own block, whether it stands above or below them.

What was measured:
human IL-36R [1] = target: T1, human IL-36R (human, UniProt Q9HB29 20-575); assay: cell-based or functional assay
T1 sequence (looked up): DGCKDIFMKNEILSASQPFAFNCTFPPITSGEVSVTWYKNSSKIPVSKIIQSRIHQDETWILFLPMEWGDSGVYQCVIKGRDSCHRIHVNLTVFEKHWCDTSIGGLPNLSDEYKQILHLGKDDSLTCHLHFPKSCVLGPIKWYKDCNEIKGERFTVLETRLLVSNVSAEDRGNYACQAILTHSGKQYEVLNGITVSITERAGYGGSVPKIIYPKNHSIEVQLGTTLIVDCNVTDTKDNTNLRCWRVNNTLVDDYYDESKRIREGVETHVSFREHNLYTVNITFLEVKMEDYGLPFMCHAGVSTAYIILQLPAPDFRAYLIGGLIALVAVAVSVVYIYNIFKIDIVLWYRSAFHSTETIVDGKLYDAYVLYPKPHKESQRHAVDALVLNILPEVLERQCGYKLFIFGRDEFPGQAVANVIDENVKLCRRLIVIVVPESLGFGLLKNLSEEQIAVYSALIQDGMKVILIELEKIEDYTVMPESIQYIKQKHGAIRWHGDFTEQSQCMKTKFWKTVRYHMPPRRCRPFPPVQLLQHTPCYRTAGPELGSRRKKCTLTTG

[2] = target: T2, IL17A (analyte of Table 17) (Homo sapiens (Human), UniProt Q16552 24-155); assay: SPR Biacore 8K, antibody captured on anti-human chip, antigen as analyte, 1:1 model
T2 sequence: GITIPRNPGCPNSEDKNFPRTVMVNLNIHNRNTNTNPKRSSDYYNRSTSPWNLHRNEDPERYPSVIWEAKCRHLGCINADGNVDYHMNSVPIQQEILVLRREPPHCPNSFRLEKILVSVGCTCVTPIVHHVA

human IL-36R [3] = target: T1, human IL-36R; assay: flow cytometry on CHO-K1-huIL-36R-5E10/2F10 cells
Human IL-17A = target: T3, Human IL-17A (human, UniProt Q16552 24-155); assay: cell-based or functional assay
T3 sequence (looked up): T2 sequence

human IL-36R [4] = target: T1, human IL-36R; assay: cell-based or functional assay; remark: listed apart in the source
[5] = target: T4, His-tagged human IL-1 Rrp2/IL-1R6 protein (human, UniProt Q9HB29 20-335, limits assumed); assay: SPR Biacore 8K, His-tagged antigen captured by anti-His antibody, antibody as analyte, 1:1 model
T4 construct: Bought protein; also called His-tagged human IL-1 Rrp2/IL-IR6 protein; not shown: His tag
T4 sequence (looked up): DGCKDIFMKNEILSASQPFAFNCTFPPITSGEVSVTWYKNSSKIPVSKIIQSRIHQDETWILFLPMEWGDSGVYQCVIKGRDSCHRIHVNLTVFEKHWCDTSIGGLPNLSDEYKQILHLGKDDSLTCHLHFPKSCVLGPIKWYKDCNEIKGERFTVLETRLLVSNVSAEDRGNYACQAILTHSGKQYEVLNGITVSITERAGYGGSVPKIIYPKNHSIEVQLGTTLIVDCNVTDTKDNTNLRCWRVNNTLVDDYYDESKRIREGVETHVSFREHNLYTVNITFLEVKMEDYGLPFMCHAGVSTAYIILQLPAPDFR

human IL-36R [6] = target: T1, human IL-36R; assay: cell-based or functional assay; remark: listed apart in the source
human IL-36R [7] = target: T1, human IL-36R; assay: cell-based or functional assay; remark: listed apart in the source
human IL-36R [8] = target: T1, human IL-36R; assay: cell-based or functional assay; remark: listed apart in the source

- EC50 of inhibition of IL-6 content, NCI/ADR-RES cells stimulated with IL-36β (human IL-36R [1]): 0.48 nM
- Kd [2]: 6.13 pM
- koff [2]: 4.33e-05 s⁻¹
- kon [2]: 7.06e+06 M⁻¹ s⁻¹
- EC50 (human IL-36R [3]): 0.693 nM
- EC50 of inhibition of IL-6 secretion, HT-1080 cells stimulated with h IL17-A and h TNF-α (Human IL-17A): 0.0766 nM
B1: IL17A-IL36R bispecific antibody 700007 (bispecific antibody)
heavy (part 1 of 2): QVQLVQSGSELKKPGASVKVSCKASEYIFTNYGMNWVKQAPGQGFEWMGWIDTNTGEPTYAQGFTGRFVFSLDTSVSTAYLQISSLKAEDTATYYCANYGWGYFDYWGQGTTVTVSS
heavy (part 2 of 2): GGGGSGGGGSGGGGSGGGGSQIVLTQSPGTLSLSPGERATLSCRASSSVSSSYLHWYQQKPGQAPRLWIYSTSSRATGIPDRFSGSGSGTDFTLTISRLEPEDFATYYCQQFQSSPLTFGQGTKLEIKGGGGSGGGGSGGGGSGGGGSQVQLVQSGAEVKKPGASVKVSCKASGYTFTSSWMHWAKQAPGQGLEWIGEIHPNSAKTNYNQKFQGRVTMTRDTSISTAYMELSRLRSDDTAVYYCARVDYGKPWFAYWGQGTLVTVSS
light: DVVMTQTPPSLPVNPGEPASISCRSSQSLVHSNGYTYLHWYLQKPGQSPQLLIYKVSNHLSGVPDRFSGSGSGTDFTLKISWVEAEDVGVYFCSQSTHVPYTFGGGTKLEIKRTVAAPSVFIFPPSDEQLKSGTASVVCLLNNFYPREAKVQWKVDNALQSGNSQESVTEQDSKDSTYSLSSTLTLSKADYEKHKVYACEVTHQGLSSPVTKSFNRGEC
notes: not shown: heavy constant region CH1-CH2-CH3

- EC50 of inhibition of IL-6 content, NCI/ADR-RES cells stimulated with IL-36β (human IL-36R [1]): 0.65 nM
- Kd [2]: 7.96 pM
- koff [2]: 5.71e-05 s⁻¹
- kon [2]: 7.17e+06 M⁻¹ s⁻¹
- EC50 (human IL-36R [3]): 0.799 nM
- EC50 of inhibition of IL-6 secretion, HT-1080 cells stimulated with h IL17-A and h TNF-α (Human IL-17A): 0.0999 nM
B2: IL17A-IL36R bispecific antibody 700009 (bispecific antibody)
heavy (part 1 of 2): B1 heavy (part 1 of 2)
heavy (part 2 of 2): GGGGSGGGGSGGGGSGGGGSQIVLTQSPGTLSLSPGERATLSCRASSSVSSSYLHWYQQKPGQAPRLWIYSTSSRATGIPDRFSGSGSGTDFTLTISRLEPEDFATYYCQQFQSSPLTFGQGTKLEIKGGGGSGGGGSGGGGSGGGGSGGGGSQVQLVQSGAEVKKPGASVKVSCKASGYTFTSSWMHWAKQAPGQGLEWIGEIHPNSAKTNYNQKFQGRVTMTRDTSISTAYMELSRLRSDDTAVYYCARVDYGKPWFAYWGQGTLVTVSS
light: B1 light
notes: as for B1

- HuIL-6 detected in HIF under IL-36β stimulation IC50 (human IL-36R [4]): 0.0837 µg/mL
- Kd [5]: 0.0254 nM
- koff [5]: 1.68e-05 s⁻¹
- kon [5]: 660000 M⁻¹ s⁻¹
- IC50 of GM-CSF release, NCI/ADR-RES cells stimulated with IL-36α (human IL-36R [6]): 32.8 ng/mL
- IC50 of GM-CSF release, NCI/ADR-RES cells stimulated with IL-36β (human IL-36R [6]): 22.4 ng/mL
- IC50 of GM-CSF release, NCI/ADR-RES cells stimulated with IL-36γ (human IL-36R [6]): 28.8 ng/mL
- IC50 of IL-6 release, NCI/ADR-RES cells stimulated with IL-36α (human IL-36R [6]): 33.2 ng/mL
- IC50 of IL-6 release, NCI/ADR-RES cells stimulated with IL-36β (human IL-36R [6]): 20.4 ng/mL
- IC50 of IL-6 release, NCI/ADR-RES cells stimulated with IL-36γ (human IL-36R [6]): 19.8 ng/mL
- IC50 of IL-8 release, NCI/ADR-RES cells stimulated with IL-36α (human IL-36R [6]): 43.9 ng/mL
- IC50 of IL-8 release, NCI/ADR-RES cells stimulated with IL-36β (human IL-36R [6]): 29.2 ng/mL
- IC50 of IL-8 release, NCI/ADR-RES cells stimulated with IL-36γ (human IL-36R [6]): 28.4 ng/mL
- IC50 of pNF-κB, NCI/ADR-RES cells stimulated with IL-36β (human IL-36R [6]): 115 ng/mL
- pNFκB detected in HIF under IL-36β stimulation IC50 (human IL-36R [7]): 0.1 µg/mL
- HuIL-6 detected in HIF under IL-36α stimulation IC50 (human IL-36R [8]): 0.146 µg/mL
B3: anti-IL-36R chimeric antibody 900497 (antibody, V domains shown)
VH: QVQLQQTGSVLVRPGTSVKLSCKASGYTFTSSWMHWAKQRPGQGLEWIGEIHPNSAKTNYNEKFKGKATLTVDTFSSTAYVDLSSLASEDSAVYYCARVDYGKPWFAYWGQGTLVTVSA
VL: QIVLTQSPTIMSASPGERVTMTCSASSSVSSSYLHWYQQKPGSSPKLWIYSTSNLASGVPARFSGSGSGTSYSLTINSMEAEDAATYYCQQFQSSPLTFGAGTKLGLK
notes: Human-mouse chimera: human IgG1 heavy constant region with L234A and L235A (Eu numbering), human kappa light constant region
